Experimental data published in paper PMC6797613, “Crystal Structure Of Photorespiratory Alanine:Glyoxylate Aminotransferase 1 (AGT1) From Arabidopsis thaliana” (Frontiers in Plant Science, 2019).

Target: the molecule itself
Test: crystal structure; crystals grown by vapor diffusion from 4.1-4.2 M sodium formate, protein 11 mg/ml in 0.2 mM PLP, 10% glycerol, 100 mM Tris-HCl pH 8.5, room temperature; without or with 20 mM L-serine; data collected at 25°C; dimer by crystallographic dyad, tetramer by noncrystallographic two-fold axis

B1: alanine:glyoxylate aminotransferase 1 (AGT1) from Arabidopsis thaliana (enzyme, UniProt Q56YA5 1-401, looked up)
chain: MDYMYGPGRHHLFVPGPVNIPEPVIRAMNRNNEDYRSPAIPALTKTLLEDVKKIFKTTSGTPFLFPTTGTGAWESALTNTLSPGDRIVSFLIGQFSLLWIDQQKRLNFNVDVVESDWGQGANLQVLASKLSQDENHTIKAICIVHNETATGVTNDISAVRTLLDHYKHPALLLVDGVSSICALDFRMDEWGVDVALTGSQKALSLPTGLGIVCASPKALEATKTSKSLKVFFDWNDYLKFYKLGTYWPYTPSIQLLYGLRAALDLIFEEGLENIIARHARLGKATRLAVEAWGLKNCTQKEEWISNTVTAVMVPPHIDGSEIVRRAWQRYNLSLGLGLNKVAGKVFRIGHLGNVNELQLLGCLAGVEMILKDVGYPVVMGSGVAAASTYLQHHIPLIPSRI
notes: alanine:glyoxylate aminotransferase 1 (AGT1), Arabidopsis thaliana, AGI At2G13360, full length (residues 2/3-401 seen in the crystal); Untagged recombinant protein from a pET28a-derived plasmid (construct as in Liepman and Olsen, 2001); Catalytic dimer; an apparent tetramer (dimer of dimers) is seen in the crystal only; also called Arabidopsis AGT1; serine:glyoxylate aminotransferase; source: E. …
stoichiometry N: 2
